Substitutions are numbered along the chain they refer to. Like-named read-outs stand apart in the source and are kept apart here. One block for each molecule: values may come before it.
Columns and labels:
[1] = cited from earlier work
COPD mouse model = experiment: In vivo efficacy model of COPD (Elastin and LPS); set-up: species or system mice; conditions: drug combination study
Protocol: Three groups of 10 male mice were treated as follows: • 1 group of 10 mice with a vehicle. • 1 group of 10 mice with the anti-mouse TLR328G7 antibody administration (i.p., 500 μg/per mouse) on days 0, 3, 7, 10, 14, 17, 21 and 24. • 1 group of 10 mice with the positive control roflumilast (approved as […]; antagonist of PDE-4) (oral, 15 mg/kg, five times per week). All mice were treated at days 0, 7, 14 and 21 with Elastin and LPS (i.n.), to induce COPD. At day 28 mice were sacrificed for analysis. The cellular infiltrates into airways was measured by analysis of bronchoalveolar lavage (BAL) fluid by differential cell count on day 28. The oxygenation of venous blood was measured by gasometry on day 28. The level inflammatory mediators in BALF, through the analysis for protein levels of TNF-alpha, IL-6, IL-17A and IP-10 was performed by multiplex assay. […] Statistical analysis was performed on all data utilizing a Student's t test: '*' p<0.05; '**' p<0.005; '***'p<0.0005. […] All mice were treated with Elastin and LPS (i.n.), to induce COPD and sacrified as in study A. The cellular infiltrates into airways was measured by analysis of bronchoalveolar lavage (BAL) fluid by differential cell count as in Study A.

[2] = biological target: T1, wild type human TLR3 expressed in 293T cells (human, UniProt O15455 24-904); experiment: cell-based or functional assay
[3] = biological target: T1, wild type human TLR3 expressed in 293T …; experiment: cell-based or functional assay; remark: listed apart in the source
[4] = biological target: T2, recombinant human TLR3 extracellular domain (R&D Systems) (human, UniProt O15455 27-711); experiment: SPR (Biacore T100), rhTLR3 immobilised on CM5 chip, bivalent affinity, pH 5.6
T2 construct: also called rhTLR3; human rec TLR3; not shown: His tag (R&D #1487-TR)

[5] = biological target: T2, recombinant human TLR3 extracellular …; experiment: SPR (Biacore T100), rhTLR3 immobilised on CM5 chip, bivalent affinity, pH 7.2
TLR3 [6] = biological target: T3, TLR3 (Homo sapiens, UniProt O15455); experiment: SPR competition assay with polyAU in acidic buffer; format: binding; set-up: purchased R&D Systems; conditions: pH 5.6
Protocol: (a) General Biacore T100 methods. SPR measurements were performed on a Biacore T100 apparatus (Biacore GE Healthcare) at 25° C. In all Biacore experiments HBS-EP+ buffer (Biacore GE Healthcare) or 10 mM sodium acetate pH 5.6, 150 mM NaCl, 0.05% P20 served as running buffer and sensorgrams were analyzed with Biaevaluation 4.1 and Biacore T100 Evaluation software. Recombinant human and mouse TLR3 were purchased from R&D Systems. (b) Protein immobilization. Recombinant TLR3 protein was immobilized covalently to carboxyl groups in the dextran layer of a Biacore Series 5 Sensor Chip CM5 (chip). The chip surface was activated with EDC/NHS (0.2M N-ethyl-N′-(3-dimethylaminopropyl) carbodiimidehydrochloride, 0.05M N-hydroxysuccinimide (Biacore GE Healthcare)). […] Deactivation of the remaining activated groups was performed using 100 mM ethanolamine pH 8 (Biacore GE Healthcare). (c) Antibody binding analysis was run using HBS-EP+ (neutral pH). Antibodies at a concentration of 10 μg/ml were injected for 2 min at a constant flow rate of 10 μl/min over the immobilized proteins and allowed to dissociate for 3 min before regeneration by a ten second injection of 10 mM NaOH, 500 mM NaCl regeneration buffer. Blank correction was performed on line by co-injecting the soluble antibodies onto the reference dextran flow cell. (d) Competition assay in acidic buffer (pH 5.6). Flow rate was set to 10 μl/min, the first antibody at a concentration of 50 μg/ml (or polyAU at 100 μg/ml) was injected for 2 min, 3 times successively in order to saturate the rhTLR3 surface. The second antibody (or polyAU at 100 μg/ml when the polyAU was added after first antibody) was then injected for 2 min also at 50 μg/ml and allowed to dissociate for 3 min before regeneration by a 15 second injection of 10 mM NaOH, 500 mM NaCl regeneration buffer. Blank correction was also performed on line and the curve using the saturating antibody (or neucleic acid) followed by an injection of buffer subtracted to remove the signal due to the dissociation of the first complex. The resulting signal was compared to that obtained by the injection of the second antibody directly onto the rhTLR3 surface.
Competition assays were conducted according to the methods described for SPR, item d) at pH 5.6.
Buffer (followed by polyAU) is represented in the lower line, while 31C3 followed by polyAU is in the upper line.

TLR3 [7] = biological target: T3, TLR3; experiment: 293T-TLR3-ISRE luciferase reporter gene assay; format: cell-based; set-up: host or cells: 293T (ATCC #CRL-1573), stably carrying pISRE-luc; conditions: dsRNA TLR3 agonist
From the text: A reporter gene assay using as promoter ISRE (IFN-stimulated response element) and as reporter gene and protein luciferase was set up. A 293T cell line (ATCC, #CRL-1573) was stably transfected with pISRE-luc plasmid (#219089—Stratagene), further selected by cloning as inducing optimal response to IFN-alpha stimulation and referred to as control 293T-ISRE. This cell line was further stably transfected with pUNO-humanTLR3 plasmid (#puno-htlr3—InVivogen) or pUNO-mouseTLR3 plasmid (#puno-mtlr3—InVivogen) and referred to as 293T-TLR3-ISRE and 293T-mTLR3-ISRE respectively. On day 0, cells are seeded at 4×10^5 cells/mL in complete culture medium in 96-well culture plate (100 μl/well). Cells are first incubated at 37° C. for 20 hours, then 50 μL of medium are discarded and cells are activated with 100 μL/well final of increasing amounts of polyAU together with various concentrations of anti-TLR3 antibodies. Cells incubated with fresh medium will be used as background luciferase activity. Cells are incubated at 37° C. for 6 hours. 100 μL of freshly thawed Steady Glo (Promega) are added to each well, plates were incubated 10 min at RT in the dark and the light emitted in each well is quantified as Count Per Second (CPS) on a gamma-counter (TopCount) apparatus.
Antibodies were tested for inhibition of TLR3 signaling in a luciferase based reporter gene activity (293T-TLR3-ISRE). […] Briefly, dsRNA TLR3 agonists were used to induce TLR3 signaling in the reporter assay in the presence of anti-TLR3 antibodies, and TLR3 signaling was assessed.
In a further set of experiments, 293-huTLR3 cells were incubated with different concentrations of the anti-TLR3 mAbs for 1 to 2 hours (see FIG. 1A; mAb concentration is represented in axis in μg/ml on a logarithmic scale) followed by the addition to the medium of the TLR3 agonist polyAU at a concentration of 300 μg/ml. Luciferase expression was measured after 6 h. […]
Similarly the kinetics of inhibition of the antibodies was evaluated in 293T-TLR3 luciferase assay. […] Luciferase expression was measured at 6 h post poly(A:U) addition. […]

Molecule: Adalimumab
half-life ([1]; after a standard 40 mg dose): approximately 2 weeks
half-life (range) ([1]; after a standard 40 mg dose): 240 to 480 h

Molecule: O=C(Nc1c(Cl)cncc1Cl)c1ccc(OC(F)F)c(OCC2CC2)c1 [Roflumilast, roflumilast]
BAL macrophages and lymphocytes (COPD mouse model): decreases in macrophages
BAL neutrophil infiltration (COPD mouse model): decreased infiltration of neutrophils into the airways

Molecule: Etanercept
half-life ([1]; after a 25 mg dose): 70 h

IC50, luciferase reporter inhibition test with 100 µg/ml of polyAU [2]: < 5 µg/mL
IC50 (µg/ml), inhibition of polyAU (300 µg/ml)-induced luciferase expression in 293-huTLR3 ISRE reporter cells [3]: 1.83 µg/mL
Kd [4]: 0.0103 nM
Kd [5]: 0.138 nM
B1: antibody 23C8 (antibody, V domains shown)
VH: EVQLQQSGPELVKPGASVKISCKASGYSFTGYFMHWVKQSHVKSLEWIGRINPYNGATSYNQNFKDKASLTVDKSSSTSYMELHSLTSEDSAVYYCVRDDGGNYPFDYWGQGTTLTVS
VL: DIQMTQSPASLSASVGETVTITCRASENIYSYLAWYQQKQGKSPQLLVYYAKTLAEGVPSRFSGSGTGTQFSLKINSLQPEDFGSYYCQHHYGTPYTFGGGTKLEIK
notes: also called 23C8.4

IC50 (µg/ml), inhibition of polyAU (300 µg/ml)-induced luciferase expression in 293-huTLR3 ISRE reporter cells [3]: 5.56 µg/mL
Kd [4]: 0.335 nM
Kd [5]: 0.65 nM
B2: antibody 28F11 (antibody, V domains shown)
VH: EVQLQQSGPELVKPGASVKISCKASGYSFTGYYIHWVKQSHVKSLEWIGRINPYYGATSYNQNFKDKANLTVDKSSSTAYMELHSLTSDDSAVYYCARSTKLGYLDYWGQGTTLTVS
VL: B1 VL with Y32N, V48I, Y50N, T67S, F71Y, S72F, Y96F

B3: 23C8: anti-human TLR3 monoclonal antibody, IgG1; VH SEQ ID NO: 26, VL SEQ ID NO: 27 (antibody, listed as Mus musculus, V domains shown)
VH: MGWSWIFLFLLSGTAGVLSEVQLQQSGPELVKPGASVKISCKASGYSFTGYFMHWVKQSHVKSLEWIGRINPYNGATSYNQNFKDKASLTVDKSSSTSYMELHSLTSEDSAVYYCVRDDGGNYPFDYWGQGTTLTVS
VL: MSVPTQVLGLLLLWLTGARCDIQMTQSPASLSASVGETVTITCRASENIYSYLAWYQQKQGKSPQLLVYYAKTLAEGVPSRFSGSGTGTQFSLKINSLQPEDFGSYYCQHHYGTPYTFGGGTKLEIK
modifications: SIGNAL (1)..(19); SIGNAL (1)..(20)
antibody binding to TLR3 chip previously incubated with polyAU (TLR3 [6]): able to bind TLR3 even in the presence of polyAU
inhibition of TLR3 signaling (TLR3 [7]): strongly inhibited TLR3 signaling in a dose dependent fashion

B4: 28F11: anti-human TLR3 monoclonal antibody, IgG1; VH SEQ ID NO: 18, VL SEQ ID NO: 19 (antibody, listed as Mus musculus, V domains shown)
VH: MGWSWIFLFLLSGTAGVLSEVQLQQSGPELVKPGASVKISCKASGYSFTGYYIHWVKQSHVKSLEWIGRINPYYGATSYNQNFKDKANLTVDKSSSTAYMELHSLTSDDSAVYYCARSTKLGYLDYWGQGTTLTVS
VL: B3 VL with Y52N, V68I, Y70N, T87S, F91Y, S92F, Y116F
modifications: SIGNAL (1)..(19); SIGNAL (1)..(20)
antibody binding to TLR3 chip previously incubated with polyAU (TLR3 [6]): able to bind TLR3 even in the presence of polyAU
inhibition of TLR3 signaling (TLR3 [7]): strongly inhibited TLR3 signaling in a dose dependent fashion

IC50, luciferase reporter inhibition test with 100 µg/ml of polyAU [2]: < 5 µg/mL
Kd [4]: 0.0517 nM
Kd [5]: 0.00301 nM
B5: antibody 34A3 (antibody, V domains shown)
VH: EIQLQQSGPELVKPGASVKVSCKASGYVFTTYSIYWVKQSHGKSLEWIGYIDPYNGDTSYNQKFKGKATLTVDKSSSTAYMHLNSLTSEDSTVYYCAREGNYYGYFDYWGQGTTLTVS
VL: QIVLTQSPALMSASPGEKVTMTCSASSSVSYMFWYQQKPRSSPKPWIYLTSNLASGVPARFSGSGSGTSYSLTISSMEAEDAATYYCQQWTGNPPTFGGGTKLEIK
notes: Mouse hybridoma antibody (Balb/c, immunization series #2); also called 34A3.5; printed 34A4, 32A4 and 34A2 in some places

Source: patent US20140065154A1, “TLR3 BINDING AGENTS” (INNATE PHARMA, priority 2011, published 2014)
